This experiment has as its target T1, papain (immobilised, papain affinity chromatography) (UniProt P00784 134-345).
T1 sequence (looked up): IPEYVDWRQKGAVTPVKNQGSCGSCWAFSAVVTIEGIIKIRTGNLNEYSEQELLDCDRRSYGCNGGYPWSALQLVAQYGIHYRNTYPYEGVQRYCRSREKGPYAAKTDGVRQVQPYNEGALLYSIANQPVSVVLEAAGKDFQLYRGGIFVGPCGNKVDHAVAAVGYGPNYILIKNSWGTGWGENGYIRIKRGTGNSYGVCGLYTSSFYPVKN
The experiment in a line: papain affinity chromatography (retention on immobilised papain during purification).

This is an account of results in patent publication US20030022261A1 (SALK INSTITUTE FOR BIOLOGICAL STUDIES, published 2003).

B1: glycosylated cystatin C (CCg), 21 kDa protein purified from conditioned medium of adult rat hippocampus-derived neural progenitor cells (other, UniProt P14841 21-140, looked up)
chain: GTSRPPPRLLGAPQEADASEEGVQRALDFAVSEYNKGSNDAYHSRAIQVVRARKQLVAGINYYLDVEMGRTTCTKSQTNLTNCPFHDQPHLMRKALCSFQIYSVPWKGTHTLTKSSCKNA
modifications: N-linked carbohydrate moiety of approximately 2.4 kDa (about 15 hexose residues) at the N-glycosylation site (Asn79-X-Thr); carbohydrate moiety of 0.3 kDa at the O-glycosylation site (Ser3)
notes: mature; also called glycosylated form of cystatin C; stem cell glycocystatin C
Consider B1, for which the binding result is reported as “binds”.
